Test results published in US20090148466A1, “Process for the Preparation of Hypoallergenic Mosaic Antigens” (BIOMAY AG, priority 2003, published 2009).

Experiments:
[1] = Characteristics of Phl p 2-derived synthetic peptides (isoelectric point); format: physicochemical
Text: Table 1: Characteristics of Phl p 2-derived synthetic peptides. […] Peptide 1 corresponds to SEQ ID NO:3, Peptide 3 corresponds to SEQ ID NO:4 and Peptide 2 corresponds to SEQ ID NO:5.

[2] = system: grass pollen allergic patients; experiment: Skin prick test (immediate type skin reactions); conditions: standardized skin prick solution
Procedure: SPTs (skin prick tests) were performed on the individuals' forearms. Twenty microliter aliquots containing 5 concentrations of rPhl p 2 and of Phl p 2-derived mosaic P2M (1 μg/ml, 2 μg/ml, 4 μg/ml, 8 μg/ml, 16 μg/ml) were applied. In addition, standardized skin prick solutions (timothy grass pollen extract and histamine) (Allergopharma, Reinbeck, Germany) were tested. Reactions were recorded 20 minutes after SPT by photography and by transferring the ballpoint pen-surrounded wheal area with a scotch tape to paper. The mean wheal diameter (Dm) was calculated by measuring the maximal longitudinal and transversal diameter and dividing their sum by 2 as described by Focke et al., 2001.

[3] = system: IgE antibodies in sera from grass pollen allergic patients; experiment: IgE reactivity by dot blot with sera from grass pollen allergic patients; format: binding, human; conditions: for IgE binding capacity (dot blot): sera from 12 timothy grass pollen allergic patients
Procedure: The allergenic activity of the Phl p 2-derived peptides was evaluated by comparing the IgE-reactivity of complete rPhl p 2 with the peptides by dot blot analysis (FIG. 1). Nitrocellulose-dotted Phl p 2-derived peptides (P1-P3), an immunologically unrelated major grass pollen allergen, rPhl p 5 (Vrtala S, Sperr W R, Reimitzer I, van Ree R, Laffer S, Müller WD, Valent P, Lechner K, Rumpold H, Kraft D, Scheiner 0, Valenta R. cDNA cloning of a major allergen from timothy grass (Phleum pratense) pollen; characterization of the recombinant Phl p V allergen. J. Immunol. 1993, 151: 4773-4781), and for control purposes, human serum albumin as well as a control peptide were exposed to sera from grass pollen allergic patients and to serum from a non-allergic individual.
Bound IgE antibodies were detected as described previously (Valenta R, Duchêne M, Ebner C, Valent P, Sillaber C, Deviller P, Ferreira F, Tejkl M, Edelmann H, Kraft D, Scheiner O. Profilins constitute a novel family of functional plant pan-allergens. J. Exp. Med. 1992, 175: 377-385).
(§1) The IgE binding capacity of purified Phl p 2 mosaic (P2M) was compared with that of Phl p 2 wildtype by dot blot experiments as described for the peptides using sera from twelve timothy grass pollen allergic patients (FIG. 7). […] Basophils from a grass pollen allergic patient were enriched by dextran sedimentation and exposed to increasing concentrations of purified rPhl p 2 or rPhl p 2 mosaic as described (Valent P, Besemer J, Muhm M, Majdic O; Lechner K, Bettelhei P. Interleukin 3 activates human blood basophils via high-affinity binding sites. Proc. Natl. Acad. Sci. USA 1989, 86: 5542-5546).

[4] = system: Basophils from a grass pollen allergic patient; experiment: Basophil histamine release; format: cell-based, human
Text: as §1
Histamine released in the cell free supernatants was determined in triplicates by radioimmuno assay and is expressed as mean percentage of the total histamine content of the cells as described by Valent et al.

serum IgE = conditions: cited from earlier work

Peptide 3: synthetic Phl p 2-derived peptide; Table 1 prints aa 34-64, SEQ ID NO:5; text says aa 65-96 (CFRFLTEKGMKNVFDDVVPEKYTIGATYAPEE) [synthetic Phl p 2-derived peptide; text says aa 65-96]
Isoelectric point [1]: 4.45

Peptide 2: synthetic Phl p 2-derived peptide; Table 1 prints aa 65-96, SEQ ID NO:4; text says aa 34-64 (REHGSDEWVAMTKGEGGVWTFDSEEPLQGPFNC) [synthetic Phl p 2-derived peptide; text says aa 34-64]
Isoelectric point [1]: 4.03

NCCc1c[nH]cn1 [Histamine, histamine]
mean wheal diameter ([2]; Individual 1): 8 mm
mean wheal diameter ([2]; Individual 2): 8 mm

B1: rPhl p 2: recombinantly produced wild type timothy grass pollen allergen Phl p 2, his-tagged (protein)
chain: MVPKVTFTVEKGSNEKHLAVLVKYEGDTMAEVELREHGSDEWVAMTKGEGGVWTFDSEEPLQGPFNFRFLTEKGMKNVFDDVVPEKYTIGATYAPEEHHHHHH
IgE reactivity (dot blot) ([3]; nitrocellulose-dotted, sera from 35 grass pollen allergic patients): Sera from all 35 grass pollen allergic patients showed IgE reactivity
IgE binding capacity (dot blot) [3]: Sera from all 12 grass pollen allergic patients contained IgE antibodies against rPhl p 2
concentration of maximal histamine release ([4]; basophils from a grass pollen allergic patient): 10^−3 μg/ml
share of grass pollen allergic individuals whose serum IgE reacts (serum IgE): about 70%

B2: P2M: recombinant his-tagged mosaic protein: the three Phl p 2-derived peptides recombined in altered order 1, 3, 2 (SEQ ID NO:1) (protein)
chain: MVPKVTFTVEKGSNEKHLAVLVKYEGDTMAEVELFRFLTEKGMKNVFDDVVPEKYTIGATYAPEEREHGSDEWVAMTKGEGGVWTFDSEEPLQGPFNHHHHHH
modifications: His tag
IgE binding capacity (dot blot) [3]: no serum exhibited IgE reactivity
reduced allergenic activity compared to the rPhl p 2 allergen ([4]; basophil histamine release): more than 1000 fold
